From paper doi:10.1101/2020.04.11.018549v1 (biorxiv, 2020) come the findings set out here.

The target in series [1] is T1, RjoADP-GlcPPase (Rhodococcus jostii, UniProt Q0S3Y4).
T1 sequence (Q0S3Y4 1-404): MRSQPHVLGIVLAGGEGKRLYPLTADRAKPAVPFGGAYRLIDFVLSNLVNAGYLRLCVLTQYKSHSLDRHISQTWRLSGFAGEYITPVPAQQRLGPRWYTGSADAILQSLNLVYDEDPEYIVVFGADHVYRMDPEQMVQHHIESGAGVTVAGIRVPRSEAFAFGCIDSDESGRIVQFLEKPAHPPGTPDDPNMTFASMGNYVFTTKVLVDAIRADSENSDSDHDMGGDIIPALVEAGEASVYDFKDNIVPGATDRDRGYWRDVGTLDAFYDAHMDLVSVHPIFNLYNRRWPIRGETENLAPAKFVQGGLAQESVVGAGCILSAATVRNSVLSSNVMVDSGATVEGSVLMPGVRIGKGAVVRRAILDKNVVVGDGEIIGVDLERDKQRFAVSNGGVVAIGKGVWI
The experiment in a line: Pi release. It counts as biochemical. Particulars: read-out: S0.5; no effector; ATP, 10 mM MgCl2, pH 8.0, 37°C.

Substrate in series [2]: Nc1ncnc2c1ncn2[C@@H]1O[C@H](COP(=O)(O)OP(=O)(O)OP(=O)(O)O)[C@@H](O)[C@H]1O
The experiment in a line: purified protein. The note with it: no effector, Glc-1P, 10 mM MgCl2, pH 8.0, 37°C.

Substrate in series [3]: O=P(O)(O)O[C@H]1O[C@H](CO)[C@@H](O)[C@H](O)[C@H]1O
The experiment in a line: purified protein. Particulars: no effector, ATP, 10 mM MgCl2, pH 8.0, 37°C.

With `O=P(O)(O)O[C@H]1O[C@H](CO)[C@@H](O)[C@H](O)[C@H]1O` [Glc-1P], the Km in series [1] came to 1800 µM.

B1: RfaADP-GlcPPase (Rhodococcoides fascians) (protein)
chain: MRTQPHVLGIVLAGGEGKRLYPMTADRAKPAVPFGGAYRLIDFVLSNLVNAGYLRLCVLTQYKSHSLDRHISQTWRLSGFAGEYITPVPAQQRLGPRWYTGSADAIFQSLNLVYDEDPEYIVVFGADHVYRMDPEQMVQQHIDSGAGVTVAGIRVPRSEAFAFGCIDSDENGKITQFLEKPAQPPGTPDDPDVTYASMGNYVFTTKVLVDAIKADSENSDSDHDMGGDIIPALVEAGVASVYDFNDNVVPGATERDRGYWRDVGTIDAFYDAHMDLVSVHPIFNLYNRRWPIRGSAENLPPAKFVQGGLAQESVVGAGCILSAATVRNSVLSSNVMIDSGATVEGSVLMPGVRIGKGAVVRHAILDKNVVVGDGEIVGVDLERDRERFNVSAGGVVSVGKGVWI
As usually defined, the kcat is the maximal rate divided by the concentration of active sites. For the molecule B1, the K0.5 in series [2] worked out at 0.58 mM. Besides, in series [3], the K0.5 is 1.17 ± 0.08 mM and the kcat turned out to be 8.8 s⁻¹.
